According to the DeepSol protein solubility set:

Assay: soluble on expression in E. coli; label from the status in PepcDB or PDB records

Row | Sequence | soluble on expression in E. coli
1 | MSLTDLFAREPYAPLAERLRPHTLDDVVGQEHLIGEGKPLRVAVEGGKPHSMLLWGPPGVGKTTLARILAQSFNAQFLPVSAVFSGVKDIREAIDKAEIALQQGRATILFVDEVHRFNKAQQDAFLPHVESGLLTFIGATTENPSFEVNPALLSRAQVYVLQPLSSDDLKKLIAKVLALPEYQEFTIETDAQKLLVNTVDGDARRLLNLLEQLLRAADTRRLKNLTAEFLADSLGAQIRRFDKGGESFYNQISALHKSVRGSHPNAALYWFCRMLDGGTDPRYLARRIVRIAWEDIGLADPRALQIANDAAATFERLGSPEGELALAQAVLYLAAAAKSNAGYKAYNQMRHFVKENASDEVPVHLRNAPTKLMKELGYGREYRYAHDEPNAYAAGESYMPDGLDEPDFYQPVPRGLEIKIGEKLAWLKSLDEEVLKAEGHHHHHH | soluble
2 | MSLRNKLLTIFDSVDESARIKDAFITQLESSITDAGVLALKLELLDFLTSNLSNYSRTMTISHLLLGFQVSNVISLGPNLATFISSGTSLLDSLISVLEASLNSITKDNIDYAPMRLATAALEIILKLCRNPLTSGLLYSYLIKENFFERIMILDPQVTRFTTWNGSPFDNSTEEKCKNFIESESVGAFLSFLAYRNYWTQYLGLFIHKISFSGTKSEVLTYVNYLISNTMYSVRLFSFLDPLNYGNICEPKETLSIFTNVPLNLEQVTLNKYCSGNIYDFHKMENLMRLIKRVRAESLHSNEGHHHHHH | soluble
3 | MGSDKIHHHHHHSVQSIINNPAVDPHDYEPTTKVGKSVASADLVVASGIGYDGWMDKVVKSADKSKNYLRVADDLMNKKEGDNEHIWYDPRTMSKLANTLADKFAKKDPADKATFKANAKKYIASLDNLNTLINKLKSKVNGQLVDVSEPVFGYALDYLGYKVNDDHFSKSTEDGTDYSAKDIHGIETDIKEKKIAFFVNNIQASSKTVNQLVKLAEQNNVPVLKVTETLPKGKNYRTWMTSQYQQLEKIQDQATNSAK | not soluble
4 | MWQQAIGDALGITARNLKKFGDRFPHVSDGSNKYVLNDNTDWTDGFWSGILWLCYEYTGDEQYREGAVRTVASFRERLDRFENLDHHDIGFLYSLSAKAQWIVEKDESARKLALDAADVLMRRWRADAGIIQAWGPKGDPENGGRIIIDCLLNLPLLLWAGEQTGDPEYRRVAEAHALKSRRFLVRGDDSSYHTFYFDPENGNAIRGGTHQGNTDGSTWTRGQAWGIYGFALNSRYLGNADLLETAKRMARHFLARVPEDGVVYWDFEVPQEPSSYRDSSASAITACGLLEIASQLDESDPERQRFIDAAKTTVTALRDGYAERDDGEAEGFIRRGSYHVRGGISPDDYTIWGDYYYLEALLRLERGVTGYWYERGR | soluble
5 | MGHHHHHHSHAQHNYVISLTTEQKRRKHITEEFGKQNIPFEFFDAITPDIIEETAKKFNITLDRSPKAKLSDGEIGCALSHIVLWDLALENNLNYINIFEDDIHLGENAKELLEIDYISDDIHVLKLEANGKMFFKQPKSVKCDRNVYPMTVKQSGCAGYTVTAKGAKYLLELVKNKPLDVAVDSLV | soluble
6 | KRAVDARTVGRMIRMSGCPDESASAKAVDWFVLMFMLRGIPFVDLAHLRRSNLDKGVLTYCRHKTGQEVSISVPREAMEIINRRMVENCHPSYLLPILGQPRTRKRHTKKALTPYQEYQYALRNLNRRLERVSVDLRLGGRLSSYTARHTWATIAFHQETPVGVISRGLGHSSVKVTETYLKPFGDREVDRTNRKILNYVLNAV | not soluble
7 | SFLSNVKYNFMRIIKYEFILNDALNQSIIRANAQYLTAAALHNLDEAVKFDMGAYKSSKDDAKITVILRISKTQLYVTAQDEDQPVLLKEMPEIPKTITGSETNLLFFWETHGTKNYFTSVAHPNLFIATKQDYWVCLAGGPPSITDFQILENQA | soluble
8 | MGSDKIHHHHHHMANFKVGCGKAMIQFSASELPIREFKSKLDDLYCRVMLISGKNSWALISFDLTSLRAAAIKRYQELAARLLAIDSNQIWVTVTHTFAAPHLPSTTDSMARKSAYRLIDEKLKESLMLACRQAHEDLQAVQVGQVNINCPLNVNRNVLTKQGWWLGRNLEGYSNHQLRVLAFRKADKTTNLLVNYDIQQSVLDHVTDDHGEQMISSDLMGNGIKAYEGNDRVAIFIPGCAGDQRPLFTGKANQPFAVNKALLANQATIVTEKLEWAVQNVHDWQPLRQLRSSQLPVIVPTQVQQRSTFEIKPTKTYDFQSTKQTTTLHLWALRLNQYEIVGTEPELNSSFGDSCRQALAGNTNTMIATLVNGAAKYLPEQIDFERITYQSMNTQLGLTADQCMLEACVQLRQKISEEEY | not soluble
9 | MSLSGMELSYRRSDLIFKRPAGTSRGVLTSKPTWFVRLDIDGHGGQGEVSLIPGLSLDPEEQIGRELDLLARRLRAEEPIRLRQFLAERGGADFSDYRSVLTDIAGILDSWQVSTDGRFPALRFALEMALLDLLSGGRQEWFASDFTRGEKRIPVNGLIWMGEAAFMQEQIEAKLAEGYGCLKLKIGAIDFDKECALLAGIRESFSPQQLEIRVDANGAFSPANAPQRLKRLSQFHLHSIEQPIRQHQWSEMAALCANSPLAIALDEELIGLGAEQRSAMLDAIRPQYIILKPSLLGGFHYAGQWIELARERGIGFWITSALESNLGLAAIAQWTALYQPTMPQGLGTGQLYTNNLPSNLAVDGGLLGVSEGHHHHHH | soluble
10 | MARAIWKGAISFGLVHIPVALNTAVRTERVDFDWLDKRSMEPVGYKRVNKVTGKEIDKDNIVKGVEFEKGRYVVISEEEIRKARPETTQTIDIFSFVEAGDIPLQHFDTPYYLTPDRRGGKVYALLRETLEKTGKVALATVVLHTRQHLALLRPLDHALVMITLRWPEEVRGLETLELDASVT | not soluble
11 | MRHLSLLLCCLLAWPARAETLVEIPTRPGVALRFLLLEPPGPPRANLILLAGGEGLLKLSAEGELGAGRGNFLVRTRQGWADMGFRVAVVDAPSDMPRGLLGDFRERAEHAADIAAVSDYLRRGAALPVWLAGTSRGTTSAAAVALNRPDAADGLLLTSSIDAGRGSLAGLPLERLAVPVLMIQHRRDECRASRPGNLGPVLDRLRADAPRELMLLDGGGSEGDPCQPWAWHGYNGIERRVLGLAGAWMLAHGRHLEHHHHHH | not soluble
12 | MSSDPDKMMSKADKMTKLTLTRWSADWRGATELYEQAANGFRASNKYEKAKVALEKASKGQEMQASPWDAAKHMESAAALAQKLSIWNEVADFYRKASELYVECGRAQPASDALGKAARALEDVKPDDAIQLYTDACEILEEDGRDQMAFDLYRACANVYIKLEKFTDAATFFLRLGVAADKCDATNSQCKAYLSAIILYLYAHDLQQAEKCYNDCSQIDAFLKSDQSRSASRLLTAYNEGDIEEIKKVASASTVSNLDHMIIKLARKLPTGDVTAIQMNTNDDLDEDDLT | soluble
13 | MLLVSDIQTIQPSLNSVNEGGQKIKNEAEPEFASRLETELKELNTQWDHMCQQLEHHHHHH | not soluble
14 | MSAPTMRSTSILTEHLGYPPISLVDDIINAVNEIMYKCTAAMEKYLLSKSKIGEEDYGEEIKSGVAKLESLLENSVDKNFDKLELYVLRNVLRIPEEYLDANVFRLENQKDLVIVDENELKKSEEKLREKVNDVELAFKKNEMLLKRVTKVKRLLFTIRGFKQKLNELLKCKDDVQLQKILESLKPIDDTMTLLTDSLRKLYVDSESTSSTEEVEALLQRLKTNGKQNNKDFRTRYIDIRTNNVLRKLGLLGDKEDEKQSAKPDARTQAGDIVSIDIEEPQLDLLDDVL | soluble
15 | MGSDKIHHHHHHMGRRGLMTETTYYVNGTEVYVAEIPSNQSTETFFLIHGFVSSTYSYRKLMPLLAKRGRVISVDLPGFGRSGKGRTFTYSFQCYAELMVALMRKLNVSKVTFVGHSMGGQVALYVAKWKPHLVKRLVLLSSSGYLQRVKRPFYFLSYIPFLRQMVKWYVQRQDVTKALQQVVYNKGIVNNEAVEMYRLPLADETFYDALLCLMRQREGDLPKEELRKIHHPVLLLWGEQDRVIPVKIGQRLASDLPNASLIVYKNTGHLLPEERPKEIMKAIDRFIRKRRQFSFFS | not soluble
16 | MKIAALYDIHGNYPALKEVLKQVKKLSPDLVVLGGDLIAGPMPLETLSLLKHVSTTFKTVGIMGNNDQDIVDIYAKKRVGLSRKATEQLTWIANQLSYKQVSFLRNLLPSISIGNYFFCHAVKNDNTTVFSPQQNKAYIETLFKGVQESYIICGHTHIQFELSLPNKKIINAGSIGMPFSNQFGAQWLWLDDNRIEYKRTIFNQQAAIQLISQTEYPFKNEFLEHHHHHH | not soluble
17 | MVFSDQQLFEKVVEILKPFDLSVVDYEEICDRMGESMRLGLQKSTNEKSSIKMFPSYVTKTPNGTETGNFLALDLGGTNYRVLSVTLEGKGKSPRIQERTYCIPAEKMSGSGTELFKYIAETLADFLENNGMKDKKFDLGFTFSFPCVQKGLTHATLVRWTKGFSADGVEGHNVAELLQTELDKRELNVKCVAVVNDTVGTLASCALEDPKCAVGLIVGTGTNVAYIEDSSKVELMDGVKEPEVVINTEWGAFGEKGELDCWRTQFDKSMDIDSLHPGKQLYEKMVSGMYLGELVRHIIVYLVEQKILFRGDLPERLKVRNSLLTRYLTDVERDPAHLLYNTHYMLTDDLHVPVVEPIDNRIVRYACEMVVKRAAYLAGAGIACILRRINRSEVTVGVDGSLYKFHPKFCERMTDMVDKLKPKNTRFCLRLSEDGSGKGAAAIAASCTRQN | soluble
18 | MGSDKIHHHHHHMANVNKTPGKTRRAEVAGGGFAGLTAAIALKQNGWDVRLHEKSSELRAFGAGIYLWHNGLRVLEGLGALDDVLQGSHTPPTYETWMHNKSVSKETFNGLPWRIMTRSHLHDALVNRARALGVDISVNSEAVAADPVGRLTLQTGEVLEADLIVGADGVGSKVRDSIGFKQDRWVSKDGLIRLIVPRMKKELGHGEWDNTIDMWNFWPRVQRILYSPCNENELYLGLMAPAADPRGSSVPIDLEVWVEMFPFLEPCLIEAAKLKTARYDKYETTKLDSWTRGKVALVGDAAHAMCPALAQGAGCAMVNAFSLSQDLEEGSSVEDALVAWETRIRPITDRCQALSGDYAANRSLSKGNMFTPAALEAARYDPLRRVYSWPQ | not soluble
19 | MGSDKIHHHHHHAEVADSIEGGNGEAPLEVRAVTGAEVDTRAPAAVEMTEGTLGIFRLAEADYTALDNIRYDRVPGGNWHPVSTVIYVGGTYARLCAYAPYNSVEFKNSSLKTEAGLTMQTYAVEKDMRFAVSGGDEVWKKTPTANFELKRAYARLVLSVVRDATYPNTCKITQAKIKASTGNIITANTVDISTGTEGSGTQTPQYTHTVTTGLKDGFEIGVTDDTSFDWLLPQQTFSGGVVLTLTVDGMDYSVTIPVDKLSTFVRGTKYTVSLVVKGGKLTLMSDKILIDRDWTEVQTGTGGSGSDYDTSFN | not soluble
20 | MLDYIPWIGNGYRYGNGYKGVAGAGHSATNGSPAGNTSSTTQSNDVAPTFSNVGVGLKANVQGTLGDSQTTTVGGHQWPTLDPANLQLWTGAEWRNDSKTQNNTTTNENHTKFASATGSGQQQGSTTTTSAGNPDSLKQDKADKSGNSISVQEATSGDNLTNYTNLPPNLTPTSDWPNALSFTNKNNAQRAQLFLRGLLGSIPVLVNNLEHHHHHH | not soluble
21 | MGSSHHHHHHSSGLVPRGSHVHNKVTIIGSGPAAHTAAIYLARAEIKPILYEGMMANGIAAGGQLTTTTEIENFPGFPDGLTGSELMDRMREQSTKFGTEIITETVSKVDLSSKPFKLWTEFNEDAEPVTTDAIILATGASAKRMHLPGEETYWQKGISACAVCDGAVPIFRNKPLAVIGGGDSACEEAQFLTKYGSKVFMLVRKDHLRASTIMQKRAEKNEKIEILYNTVALEAKGDGKLLNALRIKNTKKNEETDLPVSGLFYAIGHTPATKIVAGQVDTDEAGYIKTVPGSSLTSVPGFFAAGDVQDSKYRQAITSAGSGCMAALDAEKYLTSLE | soluble
